In the supplement of paper PMC9170038:

How the values were obtained:
[1] = test system: MS2 coat protein; experiment: apparent KD of MS2 coat protein; designed switch direction (-1 OFF switch, 1 ON switch): -1; higher = weaker reporter binding; settings: Eterna round: R98
Experimental: (§1)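 RNA-MaP: designed FMN/MS2 RNA switches (84 nt design region) are transcribed on-chip within common flanks and titrated with SNAP-549-labelled MS2 coat protein (about 1-3000 nM) in 100 mM Tris pH 7.5, 80 mM KCl, 4 mM MgCl2, without or with 200 uM FMN. Median apparent KD per design; activation ratio = KD,OFF / KD,ON.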

[2] = test system: MS2 coat protein; experiment: apparent KD of MS2 coat protein; higher = weaker reporter binding; settings: Eterna round: R101
Experimental: as §1

AGAUGACAAAGUCAUCUCGCUCUGACAUGAGGAUCACCCAUGUAGGAUAUAUUACUCAAAGAGUAAUAGAAGGACAUGUUUCUG [Ex NG2 #64]
apparent KD of MS2 coat protein ([1]; input ligand: FMN 200 uM): 65.5 nM
apparent KD of MS2 coat protein ([1]; input ligand: none): 36 nM

CAGAUAAAAGUGAGGUCGUCGACAUGAGGAUCACCCAUGUACGAGGAUAUGUAAUAUACGGUAUAGCAGAAGGCGUAUGGGUGU [Edrageer]
apparent KD of MS2 coat protein ([1]; input ligand: FMN 200 uM): 120 nM
apparent KD of MS2 coat protein ([1]; input ligand: none): 30.5 nM

CUGAAGUCUGACCCUCGAAACAUGAGGAUCACCCAUGUAGUCAGAAGGCGAUUGUGAGCAGGAAUCGAGGAUAUGAACUAGUUU [EternaBot1300] (puzzle (switch architecture): Inverted Exclusion NG 3)
apparent KD of MS2 coat protein ([2]; input ligand: FMN 200 uM): 9.99 nM

CUUACUUUGUAGAAGGGUGACAUGAGGAUCACCCAUGUGCGUGGCCUGAAAGACCAGGGUACGCCACAGGAUAUACAAAGUAAG [Esatatina] (puzzle (switch architecture): Inverted Same State NG 2)
apparent KD of MS2 coat protein ([2]; input ligand: FMN 200 uM): 26.1 nM
apparent KD of MS2 coat protein ([2]; input ligand: none): 15.3 nM

CUUAGUUUGUAGAAGGGUGACAUGAGGAUCACCCAUGUGCGUAGCCUGAAAGACCAGGGUACGCCACAGGAUAUACAAAGUAAG [Onenisa] (puzzle (switch architecture): Inverted Same State NG 2)
apparent KD of MS2 coat protein ([2]; input ligand: FMN 200 uM): 84.9 nM
apparent KD of MS2 coat protein ([2]; input ligand: none): 57.4 nM

GGCAGCCCUCAGAAGGGAGUGCGAUAAUCGCACUCAGGAUAUGAGGAUCACCCAUAUCAAGCUGCCACUGAGGCAAAGCCUCAG [#SharedSequence - IEx NG 1-1] (puzzle (switch architecture): Inverted Exclusion NG 1)
apparent KD of MS2 coat protein ([2]; input ligand: FMN 200 uM): 57.4 nM
apparent KD of MS2 coat protein ([2]; input ligand: none): 12.1 nM

GGUACUCAAAGAGUACCAAUACGAACAUGAGGAUCACCCAUGUAGGAUAUGCUACUCAAAGAGUAGCAGAAGGACAUGUGCCUA [OmeiMod 7 - Jieux - Exclusion NG 3]
apparent KD of MS2 coat protein ([1]; input ligand: FMN 200 uM): 422 nM
apparent KD of MS2 coat protein ([1]; input ligand: none): 38.7 nM

GUCACGAAUGUAGGAUAUCGAGUGGAUAACACUCGAGAAGGACAUGAGGAUCACCCAUGUCAAAUGAAAGAUAAUAAACGUGAC [Exclsuion NG 1/3-B2]
apparent KD of MS2 coat protein ([1]; input ligand: FMN 200 uM): 20.6 nM
apparent KD of MS2 coat protein ([1]; input ligand: none): 15.8 nM

GUCCCUACAUGAGGAUCACCCAUGUGGGCAGUAAGAAGCCCACAGGAUAUGCGAAGGAGGACAUAGCAGAAGGGUGGUGUUUAG [Reaninveri] (puzzle (switch architecture): Same State NG 3)
apparent KD of MS2 coat protein ([2]; input ligand: FMN 200 uM): 138 nM
apparent KD of MS2 coat protein ([2]; input ligand: none): 625 nM

GUCCCUACAUGAGGAUCACCCAUGUGGGCGGUAAGGAGCCCACAGGAUAUGCGAAGGAGGACAUAGCAGAAGGGUGGUGUUCAG [Erenerbe] (puzzle (switch architecture): Same State NG 3)
apparent KD of MS2 coat protein ([2]; input ligand: FMN 200 uM): 33.5 nM
apparent KD of MS2 coat protein ([2]; input ligand: none): 308 nM

GUUAUCUCAUGUUCGACGGACAUGAGGAUCACCCAUGUACCUUAGGAUAUUGAUGAAAUAUGGCGCAAGAAGGAAGGUAACGCU [EternaBot964] (puzzle (switch architecture): Exclusion NG 3)
apparent KD of MS2 coat protein ([2]; input ligand: FMN 200 uM): 7.51 nM

UAUAUAUAGGCAGGAUAUACAUGUAUAUAUAAUUUAUUAUAUAUUAUUACAUGAGGAUCACCCAUGUAGAAGGGCCAUAUUAUA [LRO037_Exclusion NG 2]
apparent KD of MS2 coat protein ([1]; input ligand: FMN 200 uM): 51.2 nM
apparent KD of MS2 coat protein ([1]; input ligand: none): 30.1 nM

UUGCUCAAUUGGGCAGGGACCUCACAUGAGGAUCACCCAUGUCAGGAUAUCCUAGUUUGGACGUAGGAGAAGGGACGGAGUAUC [Usanat]
apparent KD of MS2 coat protein ([1]; input ligand: FMN 200 uM): 250 nM
apparent KD of MS2 coat protein ([1]; input ligand: none): 167 nM
